This experiment addresses low-affinity anti-HER2 scFv (scFv Kd = 210 nM). The experiment in a line: BLI. A general note: In BLI a coated tip is dipped into the sample, and binding shifts an interference pattern.

Consider “human epidermal growth factor receptor 2 (HER2) (from UniProt P04626 23-1255)”, for which the Kd stood at 210 nM.

What is called Kd is a measure of binding affinity in units of concentration.

The values above are taken from publication PMC8025675.
